Assay results as given in the PETadex activity labels.

B1: unnamed (protein)
chain: MRKILLSVFTILSLNSYSQCDDVISSSITNPGIYEVATLSESDGVRNGADYYGSTIYYPINTNNFLGSIVIVPGFVSYEFSIQEWGPFLASHGIVCMTIGTNSIFEQPNQRATALLDAMVSLKEENSRNASPLNSKLDIDNIALGGWSMGGGGAQIAAKMDSSIKVVIALCPWLETGLISEEYLNHQAPILFISAEYDGIANASLHATPQYELSSETTPKLIYEVANGGHTVANYPTSGNGEVGLIALSWLKKYLLNEDCYCPILLESPETASMYMTNINCENSNLNAQEIECTEGWSIISTYVNPINTNFSNFIAPVVNNLIIAKDYIGNAYLPEWDYNGIGNIEQGQGYLIKMLNTMSLAVVGEQIIASENSISLNEGWNLFANFNTESTNSDLSFAALVETENVIIIKDYIGNAMLPEWEFNGLGDLQPGRGYQIKVTANCELQY
B2: unnamed (protein)
chain: MKKSIFSKLVVSAGALLLSSTLYASGGGSGGGGSVPPVGNNPCGPDPSSSALSRTGSSGPFSVATKNVSSFSASGFGGGTIHYPTNSNCGRMGGIAVVPGYVSYESSIEWWGPRLASWGFVVITINTNSIYDQPNSRADQLSAALDHIIDDSTVGSLVDPDRLGAIGWSMGGGGSLKLATDRARVRAIIPQAPWYSGSYGSMDTPAFMIACENDAIAPTSSHVDDFYRDASGPKMKIEVNNGSHYCANSGYNESLLGKPGIAWMKRYIDGDTRYNQFLCGNESYGSSYEVSDYDYASCP
B3: unnamed (protein)
chain: MKNITIRSTVRAAVAATLAATAVSGFAQTTAPTSASLNATAGPLAVSTSTVTAPRGFGGGTIYYPTTQARYGVIAISPGFTATETSLAWLGRRIATHGFVVITLNTLTTLDQPASRATQLMAALNHVVNSSPAAVKARIDTARLAVAGHSMGGGGALIAARDNPTLKASYSLTPWNTNSSFSTVRVPTMIVGADGDTIAPVGTHARPFYAALPGTTSKAYGELNNGTHFSPNSTNTPIGRYGVAWMKRFLDADTRYSTFLCGAEHTSYATALVFDRYNQNCPY
B4: unnamed (protein)
chain: MKTSVTNFAKVTLTVATLLASAIASAQYTKGPDPTVAGLERDGSFTVRTTTVSSLAAVGFGKGTIYYPSAAGSYGVIAVSPGFTAYQSSISWIGSRLASHGFVVITIDTNTTSDQPDSRGSQLKAALDKVVSLSKSSSNVLYNKVDASRLAVAGHSMGGGGTLSAARDNPSYKAAVPLAPWHTTKSWPTLTVPTLIIGGEGDTVAGVSSHSIPFYTSISNSTKKAYMELNGEDHFFPQDATQYPLVGKYMISWFKRFVDNDTRYSAFICGAPHQTQIAVASKISDYRSNC
B5: unnamed (protein)
chain: MSTGTRVPHAGRAATAPVEGPRQRGRKMQHSLSTSRSRKRVTGILASLAVAVGVGIAAGPVAHGADNPHERGPDPSESSIEAVRGSYSISDRNVSSWVSGFGGGTIYYPTTTSDGDFGAVVISPGYTGTESTISWLGPRLASQGFVVLTMATNSIYDQPDSRARQLQAALDYLTDDSPVADRIDPDRLALMGHSMGGGGTLRAVDDNPDIKAAIPMTPWHLKKDWSSVTTPTLIFGAEDDSVARHETHAEPFYESFDRDLPKAYLELDGASHFAPNYSNTTIAKYSISWLKRFVDDDERYTQFLCPGPSTGWFSDVEKYESSCPL
B6: unnamed (protein)
chain: MPMSLASASTLSGRAYSRSMRSRTRRRRARSRRRVPPVSARAETSKGSIGMPSSYGGARRGFSLGHPRGVRRGCVQATRRVRFLDWPRPAASRGAGDPSRGDTMTGTISSRIAMRAVACCIGLFAFTAGSASAQIGPDPTSASLNATAGSFAVSTSRVTLARGFGGGTIYYPTAAGSYGVVAISPGFTATESSIAWLGRRLATHGLVVITMNTNTTLDQPASRATQLMAALNHVVNSASSTVRSRVDSTRLAVAGHSMGGGGALIAAEDNPTLKAALPLTPWNLSTSFTQVRVPTLIVGSDGDTVAPVAAHARPFYASLPATTFKAYAELNAASHFTPNSTNTPIGRYGVTWMKRFVDADTRYSPFLCGAPHTAYATALVFDRYSQNCPY
B7: unnamed (protein)
chain: MATMPSGTTALLSVTFFCTTPPSALSLKRHRYPSFRFRSPISVFLSRTHDYMQCRAPWGCMYSLGTPRGSVASRRTINEFLVGGVTQMNTKVQGSSASSAPKVGYPAKSLLAAGILLASFAANADVLFQEDFNAGLGQFTSGGDVTVTSSGARMQGCYGCTDGSITSGAISTVGFNTISLTFTRSTTGLDSGEAGIAEFSTNGSTWTTLESVRTASGARTVALPSTAAGQSALRIRFRINASLSSEYYTVDGVRVEGTPDGTPCTDCPPTGETAIGPDPTTATLEATAGSFTVATINVPSSVTGYGGGVIYYPTAAGTYGVVAMCPGYTASASSLAWWGTRLASWGLIVHIIDTNSTGDFPASRATQLIAALDYVKALNTSSTSPLRGKVANREAVSGHSMGGGGTLIAANNNASRTTLRAAFAMTPWSSSPDSFPSIRAATFVLGCESDNVASVSSHAYPFYVSIPSTVKKAYGEINNADHYCPTQSNPYKAQLGKYGVAWMKRHLEGDTRFDPWLCGAPHQQVVSGTFWSRYLSTCPY

What follows are proteins tested on BHET. Conditions: 120 h.
B1 was tested, and the plate clearing was “not clears the plate”. For B2, the plate clearing was “not clears the plate”. For B3, the plate clearing was “not clears the plate”. B4 was tested, and the plate clearing was “not clears the plate”. With B5 the plate clearing was “not clears the plate”. In the case of B6, the plate clearing is reported as “not clears the plate”. With B7 the plate clearing was “not clears the plate”.
